B1: KIAA1468 (protein, UniProt Q9P260 2-1216, looked up)
RAB11-binding protein RELCH: AAMAPGGSGSGGGVNPFLSDSDEDDDEVAATEERRAVLRLGAGSGLDPGSAGSLSPQDPVALGSSARPGLPGEASAAAVALGGTGETPARLSIDAIAAQLLRDQYLLTALELHTELLESGRELPRLRDYFSNPGNFERQSGTPPGMGAPGVPGAAGVGGAGGREPSTASGGGQLNRAGSISTLDSLDFARYSDDGNRETDEKVAVLEFELRKAKETIQALRANLTKAAEHEVPLQERKNYKSSPEIQEPIKPLEKRALNFLVNEFLLKNNYKLTSITFSDENDDQDFELWDDVGLNIPKPPDLLQLYRDFGNHQVTGKDLVDVASGVEEDELEALTPIISNLPPTLETPQPAENSMLVQKLEDKISLLNSEKWSLMEQIRRLKSEMDFLKNEHFAIPAVCDSVQPPLDQLPHKDSEDSGQHPDVNSSDKGKNTDIHLSISDEADSTIPKENSPNSFPRREREGMPPSSLSSKKTVHFDKPNRKLSPAFHQALLSFCRMSADSRLGYEVSRIADSEKSVMLMLGRCLPHIVPNVLLAKREELIPLILCTACLHPEPKERDQLLHILFNLIKRPDDEQRQMILTGCVAFARHVGPTRVEAELLPQCWEQINHKYPERRLLVAESCGALAPYLPKEIRSSLVLSMLQQMLMEDKADLVREAVIKSLGIIMGYIDDPDKYHQGFELLLSALGDPSERVVSATHQVFLPAYAAWTTELGNLQSHLILTLLNKIEKLLREGEHGLDEHKLHMYLSALQSLIPSLFALVLQNAPFSSKAKLHGEVPQIEVTRFPRPMSPLQDVSTIIGSREQLAVLLQLYDYQLEQEGTTGWESLLWVVNQLLPQLIEIVGKINVTSTACVHEFSRFFWRLCRTFGKIFTNTKVKPQFQEILRLSEENIDSSAGNGVLTKATVPIYATGVLTCYIQEEDRKLLVGFLEDVMTLLSLSHAPLDSLKASFVELGANPAYHELLLTVLWYGVVHTSALVRCTAARMFELTLRGMSEALVDKRVAPALVTLSSDPEFSVRIATIPAFGTIMETVIQRELLERVKMQLASFLEDPQYQDQHSLHTEIIKTFGRVGPNAEPRFRDEFVIPHLHKLALVNNLQIVDSKRLDIATHLFEAYSALSCCFISEDLMVNHFLPGLRCLRTDMEHLSPEHEVILSSMIKECEQKVENKTVQEPQGSMSIAASLVSEDTKTKFLNKMGQLTTSGAMLANVFQRKK
B2: HYOU1 (protein, UniProt Q9Y4L1 33-999, looked up)
Hypoxia up-regulated protein 1: LAVMSVDLGSESMKVAIVKPGVPMEIVLNKESRRKTPVIVTLKENERFFGDSAASMAIKNPKATLRYFQHLLGKQADNPHVALYQARFPEHELTFDPQRQTVHFQISSQLQFSPEEVLGMVLNYSRSLAEDFAEQPIKDAVITVPVFFNQAERRAVLQAARMAGLKVLQLINDNTATALSYGVFRRKDINTTAQNIMFYDMGSGSTVCTIVTYQMVKTKEAGMQPQLQIRGVGFDRTLGGLEMELRLRERLAGLFNEQRKGQRAKDVRENPRAMAKLLREANRLKTVLSANADHMAQIEGLMDDVDFKAKVTRVEFEELCADLFERVPGPVQQALQSAEMSLDEIEQVILVGGATRVPRVQEVLLKAVGKEELGKNINADEAAAMGAVYQAAALSKAFKVKPFVVRDAVVYPILVEFTREVEEEPGIHSLKHNKRVLFSRMGPYPQRKVITFNRYSHDFNFHINYGDLGFLGPEDLRVFGSQNLTTVKLKGVGDSFKKYPDYESKGIKAHFNLDESGVLSLDRVESVFETLVEDSAEEESTLTKLGNTISSLFGGGTTPDAKENGTDTVQEEEESPAEGSKDEPGEQVELKEEAEAPVEDGSQPPPPEPKGDATPEGEKATEKENGDKSEAQKPSEKAEAGPEGVAPAPEGEKKQKPARKRRMVEEIGVELVVLDLPDLPEDKLAQSVQKLQDLTLRDLEKQEREKAANSLEAFIFETQDKLYQPEYQEVSTEEQREEISGKLSAASTWLEDEGVGATTVMLKEKLAELRKLCQGLFFRVEERKKWPERLSALDNLLNHSSMFLKGARLIPEMDQIFTEVEMTTLEKVINETWAWKNATLAEQAKLPATEKPVLLSKDIEAKMMALDREVQYLLNKAKFTKPRPRPKDKNGTRAEPPLNASASDQGEKVIPPAGQTEDAEPISEPEKVETGSEPGDTEPLELGGPGAEPEQKEQSTGQKRPLKNDEL
B3: TRIM56 (protein, UniProt Q9BRZ2 1-755, looked up)
E3 ubiquitin-protein ligase …: MVSHGSSPSLLEALSSDFLACKICLEQLRAPKTLPCLHTYCQDCLAQLADGGRVRCPECRETVPVPPEGVASFKTNFFVNGLLDLVKARACGDLRAGKPACALCPLVGGTSTGGPATARCLDCADDLCQACADGHRCTRQTHTHRVVDLVGYRAGWYDEEARERQAAQCPQHPGEALRFLCQPCSQLLCRECRLDPHLDHPCLPLAEAVRARRPGLEGLLAGVDNNLVELEAARRVEKEALARLREQAARVGTQVEEAAEGVLRALLAQKQEVLGQLRAHVEAAEEAARERLAELEGREQVARAAAAFARRVLSLGREAEILSLEGAIAQRLRQLQGCPWAPGPAPCLLPQLELHPGLLDKNCHLLRLSFEEQQPQKDGGKDGAGTQGGEESQSRREDEPKTERQGGVQPQAGDGAQTPKEEKAQTTREEGAQTLEEDRAQTPHEDGGPQPHRGGRPNKKKKFKGRLKSISREPSPALGPNLDGSGLLPRPIFYCSFPTRMPGDKRSPRITGLCPFGPREILVADEQNRALKRFSLNGDYKGTVPVPEGCSPCSVAALQSAVAFSASARLYLINPNGEVQWRRALSLSQASHAVAALPSGDRVAVSVAGHVEVYNMEGSLATRFIPGGKASRGLRALVFLTTSPQGHFVGSDWQQNSVVICDGLGQVVGEYKGPGLHGCQPGSVSVDKKGYIFLTLREVNKVVILDPKGSLLGDFLTAYHGLEKPRVTTMVDGRYLVVSLSNGTIHIFRVRSPDS
B4: ZG16B (protein, UniProt Q96DA0 17-172, looked up)
Pancreatic adenocarcinoma …: GKMYGPGGGKYFSTTEDYDHEITGLRVSVGLLLVKSVQVKLGDSWDVKLGALGGNTQEVTLQPGEYITKVFVAFQAFLRGMVMYTSKDRYFYFGKLDGQISSAYPSQEGQVLVGIYGQYQLLGIKSIGFEWNYPLEEPTTEPPVNLTYSANSPVGR
B5: HEATR2 (protein, UniProt Q86Y56 2-855, looked up)
Dynein axonemal assembly …: AALGVAEAVAAPHPAEGAETAEAVELSRALSRLLPGLEADSKPGRRRALEALRRALEEPGPAADPTAFQGPWARLLLPRLLRCLSDPAEGCRALAVHLLDLGLRRAARPRDALPRLLPALAARLAGPVPARRPPEACEELRLALVQLLGLAVDLCGAALAPHLDDALRALRCSLLDPFAAVRRESCSCAAALAQATPDHFHMQSESLIGPLMQTISHQHWKVRVAAIEATGAVIHFGNGKSVDDVLSHFAQRLFDDVPQVRRAVASVVGGWLLCLRDRYSFFHKLIPLLLSSLNDEVPEVRQLAASLWEDVGLQWQKENEEDLKDKLDFAPPTPPHYPPHERRPVLGCRELVFRNLSKILPALCHDITDWVVGTRVKSAQLLPVLLLHAEDHATQHLEVVLRTLFQACTDEEAAVVQSCTRSAELVGTFVSPEVFLKLILSTLKKTPSASGLLVLASAMRGCPREALQPHLAAIATELAQAHICQASENDLYLERLLLCVQALVSVCHEDCGVASLQLLDVLLTIVALAGATGLRDKAQETMDSLAMVEGVSSCQDLYRKHIGPLLERVTASHLDWTAHSPELLQFSVIVAQSGPALGEALPHVVPTLRACLQPSQDPQMRLKLFSILSTVLLRATDTINSQGQFPSYLETVTKDILAPNLQWHAGRTAAAIRTAAVSCLWALTSSEVLSAEQIRDVQETLMPQVLTTLEEDSKMTRLISCRIINTFLKTSGGMTDPEKLIRIYPELLKRLDDVSNDVRMAAASTLVTWLQCVKGANAKSYYQSSVQYLYRELLVHLDDPERAIQDAILEVLKEGSGLFPDLLVRETEAVIHKHRSATYCEQLLQHVQAVPATQ

Tested on: Hsp90 complexes in Mia-PaCa-2 cell extract
Assay: Nano-LC-MS/MS of PU-beads pull-downs
Format: binding, human
Conditions: protein identified in PU-beads pull-down of Mia-PaCa-2 cell extract; QSTAR-Elite QTof MS
Protocol: (§1) Lysates prepared as mentioned above were first pre-cleaned by incubation with control beads overnight at 4° C. […] Beads were washed with lysis buffer, proteins eluted by boiling in 2% SDS, separated on a denaturing gel and Coomassie stained according to manufacturer's procedure (Biorad). […] Analyses of the batch purified pools were done using a QSTAR-Elite hybrid quadrupole time-of-flight mass spectrometer (QTof MS) (AB/MDS Sciex), equipped with a nano spray ion source. Peptide mixtures (in 20 μL) are loaded onto a trapping guard column (0.3×5-mm PepMap C18 100 cartridge from LC Packings) using an Eksigent nano MDLC system (Eksigent Technologies, Inc) at a flow rate of 20 μL/min. […] Electrospray ionization (ESI) needle voltage was set at about 1800 V. The mass analyzer is operated in automatic, data-dependent MS/MS acquisition mode, with the threshold set to 10 counts per second of doubly or triply charged precursor ions selected for fragmentation scans. Survey scans of 0.25 sec are recorded from 400 to 1800 amu; up to 3 MS/MS scans are then collected sequentially for the selected precursor ions, recording from 100 to 1800 amu. The collision energy is automatically adjusted in accordance with the m/z value of the precursor ions selected for MS/MS. Selected precursor ions are excluded from repeated selection for 60 sec after the end of the corresponding fragmentation duty cycle. […] One missed tryptic cleavage site was allowed, precursor ion mass tolerance=0.4 Da fragment ion mass tolerance=0.4 Da, protein modifications were allowed for Met-oxide, Cys-acrylamide and N-terminal acetylation. MudPit scoring was typically applied with ‘require bold red’ activated, and using significance threshold score p<0.05. Unique peptide counts (or ‘spectral counts’) and percent sequence coverages for all identified proteins were exported to Scaffold Proteome Software (version 2_06_01, www.proteomesoftware.com) for further bioinformatic analysis (Table 5a). Using output from Mascot, Scaffold validates, organizes, and interprets mass spectrometry data, allowing more easily to manage large amounts of data, to compare samples, and to search for protein modifications.

Molecule	Number of Assigned Spectra, Mia-Paca 2
B1	3
B2	0
B3	3
B4	0
B5	11

Tested on: Hsp90 complexes in K562 cell extract
Assay: Nano-LC-MS/MS of PU-beads pull-downs
Format: binding
Conditions: protein identified in PU-beads pull-down of K562 cell extract, Prep 1; QSTAR-Elite QTof MS
Protocol: Protein cargo isolated from cell lysate with PU-beads or control-beads was subjected to proteomic analysis by nano liquid chromatography coupled to tandem mass spectrometry (nano LC-MS/MS). Initial protein identification was performed using the Mascot search engine, and was further evaluated using Scaffold Proteome Software (Tables 5a-d).
as §1

Molecule	Number of Assigned Spectra, K562 Prep 1
B1	0
B2	0
B3	0
B4	0
B5	5

Same assay, conditions: protein identified in PU-beads pull-down of K562 cell extract, Prep 2; QSTAR-Elite QTof MS

Molecule	Number of Assigned Spectra, K562 Prep 2
B1	0
B2	3
B3	0
B4	3
B5	2

Source: patent US20220074941A1, “HSP90 COMBINATION THERAPY” (Sloan-Kettering Institute for Cancer Research, priority 2011, published 2022)
